# Results taken from IntAct's records for PubMed 31296862.
# B1: Type IV methyl-directed restriction enzyme EcoKMcrB subunit (Escherichia coli (strain K12)), P15005 (parent)
# chain: MESIQPWIEKFIKQAQQQRSQSTKDYPTSYRNLRVKLSFGYGNFTSIPWFAFLGEGQEASNGIYPVILYYKDFDELVLAYGISDTNEPHAQWQFSSDIPKTIAEYFQATSGVYPKKYGQSYYACSQKVSQGIDYTRFASMLDNIINDYKLIFNSGKSVIPPMSKTESYCLEDALNDLFIPETTIETILKRLTIKKNIILQGPPGVGKTFVARRLAYLLTGEKAPQRVNMVQFHQSYSYEDFIQGYRPNGVGFRRKDGIFYNFCQQAKEQPEKKYIFIIDEINRANLSKVFGEVMMLMEHDKRGENWSVPLTYSENDEERFYVPENVYIIGLMNTADRSLAVVDYALRRRFSFIDIEPGFDTPQFRNFLLNKKAEPSFVESLCQKMNELNQEISKEATILGKGFRIGHSYFCCGLEDGTSPDTQWLNEIVMTDIAPLLEEYFFDDPYKQQKWTNKLLGDS
# partner: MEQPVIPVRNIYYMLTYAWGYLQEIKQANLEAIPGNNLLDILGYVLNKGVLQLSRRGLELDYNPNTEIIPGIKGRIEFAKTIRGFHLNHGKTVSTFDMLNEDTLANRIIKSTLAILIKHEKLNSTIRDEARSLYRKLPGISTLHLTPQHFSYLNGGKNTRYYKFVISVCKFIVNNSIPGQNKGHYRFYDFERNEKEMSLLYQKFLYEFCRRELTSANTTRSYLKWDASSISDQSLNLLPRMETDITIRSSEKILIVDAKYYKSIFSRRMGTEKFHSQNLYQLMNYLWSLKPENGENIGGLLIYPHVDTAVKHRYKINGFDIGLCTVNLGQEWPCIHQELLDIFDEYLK
# Variants of: B1
# Settings: with mcrc_ecoli mcrC
row,Variant,effect of a mutation on the interaction
1,MESIQPWIEKFIKQAQQQRSQSTKDYPTSYRNLRVKLSFGYGNFTSIPWFAFLGEGQEASNGIYPVILYYKDFDELVLAYGISDTNEPHAQWQFSSDIPKTIAEYFQATSGVYPKKYGQSYYACSQKVSQGIDYTRFASMLDNIINDYKLIFNSGKSVIPPMSKTESYCLEDALNDLFIPETTIETILKRLTIKKNIILQGPPGVGKTFVARRLAYLLTGEKAPQRVNMVQFHQSYSYEDFIQGYRPNGVGFRRKDGIFYNFCQQAKEQPEKKYIFIIDEINRANLSKVFGEVMMLMAHDKRGENWSVPLTYSENDEERFYVPENVYIIGLMNTADRSLAVVDYALRRRFSFIDIEPGFDTPQFRNFLLNKKAEPSFVESLCQKMNELNQEISKEATILGKGFRIGHSYFCCGLEDGTSPDTQWLNEIVMTDIAPLLEEYFFDDPYKQQKWTNKLLGDS [E298A],with no effect
2,MESIQPWIEKFIKQAQQQRSQSTKDYPTSYRNLRVKLSFGYGNFTSIPWFAFLGEGQEASNGIYPVILYYKDFDELVLAYGISDTNEPHAQWQFSSDIPKTIAEYFQATSGVYPKKYGQSYYACSQKVSQGIDYTRFASMLDNIINDYKLIFNSGKSVIPPMSKTESYCLEDALNDLFIPETTIETILKRLTIKKNIILQGPPGVGKTFVARRLAYLLTGEKAPQRVNMVQFHQSYSYEDFIQGYRPNGVGFRRKDGIFYNFCQQAKEQPEKKYIFIIDEINRANLSKVFGEVMMLMEHDKRGENWSVPLTYSENDEERFYVPENVYIIGLMNTADRSLAVVDYALRARFSFIDIEPGFDTPQFRNFLLNKKAEPSFVESLCQKMNELNQEISKEATILGKGFRIGHSYFCCGLEDGTSPDTQWLNEIVMTDIAPLLEEYFFDDPYKQQKWTNKLLGDS [R348A],disrupting interaction strength
3,MESIQPWIEKFIKQAQQQRSQSTKDYPTSYRNLRVKLSFGYGNFTSIPWFAFLGEGQEASNGIYPVILYYKDFDELVLAYGISDTNEPHAQWQFSSDIPKTIAEYFQATSGVYPKKYGQSYYACSQKVSQGIDYTRFASMLDNIINDYKLIFNSGKSVIPPMSKTESYCLEDALNDLFIPETTIETILKRLTIKKNIILQGPPGVGKTFVARRLAYLLTGEKAPQRVNMVQFHQSYSYEDFIQGYRPNGVGFRRKDGIFYNFCQQAKEQPEKKYIFIIDEINRANLSKVFGEVMMLMEHDKRGENWSVPLTYSENDEERFYVPENVYIIGLMNTADRSLAVVDYALRRAFSFIDIEPGFDTPQFRNFLLNKKAEPSFVESLCQKMNELNQEISKEATILGKGFRIGHSYFCCGLEDGTSPDTQWLNEIVMTDIAPLLEEYFFDDPYKQQKWTNKLLGDS [R349A],disrupting interaction strength
